The values below are quoted from earlier work in PMC3367028.

This series addresses CD74 (Homo sapiens) (UniProt P04233). In words: SPR. In general terms: In SPR one partner is held on a chip, and binding of the other changes the refractive index at the surface.
Chain of UniProt P04233 (P04233 73-296): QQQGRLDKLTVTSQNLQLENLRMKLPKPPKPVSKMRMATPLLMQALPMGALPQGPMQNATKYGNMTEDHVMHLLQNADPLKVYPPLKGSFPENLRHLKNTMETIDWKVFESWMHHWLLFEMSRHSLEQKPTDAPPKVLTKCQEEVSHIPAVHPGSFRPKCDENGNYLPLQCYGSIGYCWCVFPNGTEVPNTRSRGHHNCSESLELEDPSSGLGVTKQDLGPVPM

What is called Kd is the concentration at which binding is half-saturated. Turning to D-DT (from UniProt P30046), the Kd was 5.42 nM.
